Columns and labels:
Assay in all cases: IEDB peptide-MHC binding, purified MHC/competitive/radioactivity; filed as Kd, often an IC50 or EC50 that approximates it; ≥ and ≤ were set here for values at or beyond the usual limits of such assays
HLA-A*02:03 = target: HLA-A*02:03
HLA-A*02:02 = details: source organism: Vaccinia virus WR
HLA-A*02:06 = target: HLA-A*02:06
HLA-A*33:01 = target: HLA-A*33:01
HLA-A*03:01 = target: HLA-A*03:01
HLA-A*68:01 = target: HLA-A*68:01
HLA-A*11:01 = target: HLA-A*11:01
HLA-A*31:01 = target: HLA-A*31:01
[1] = source organism: Vaccinia virus WR
[2] = source organism: Dengue virus 1 Brazil/97-11/1997
[3] = source organism: SARS coronavirus Tor2
[4] = source organism: Mammarenavirus juninense
[5] = source organism: Mammarenavirus lassaense

Row | Sequence | Kd (HLA-A*33:01; [1]) | Kd (HLA-A*03:01; [1]) | Kd (HLA-A*68:01; [1]) | Kd (HLA-A*11:01; [1]) | Kd (HLA-A*31:01; [1]) | further results
1 | RVLYDEFVTI | – | – | – | – | – | Kd (HLA-A*02:03; [1]): 178 nM; Kd (HLA-A*02:02): 153 nM; Kd (HLA-A*02:06; [1]): 6.62 nM
2 | SADNHPKMIK | 144 nM | 16.7 nM | 15.1 nM | 2.04 nM | 33.7 nM | –
3 | SIFVSTMPV | – | – | – | – | – | Kd (HLA-A*02:03; [1]): 6.58 nM; Kd (HLA-A*02:02): 37.5 nM; Kd (HLA-A*02:06; [1]): 81.9 nM
4 | SILARRPTPK | 12300 nM | 1.08 nM | 147 nM | 1.44 nM | 372 nM | –
5 | SLCPTKKLV | – | – | – | – | – | Kd (HLA-A*02:03; [1]): 2660 nM; Kd (HLA-A*02:02): 3160 nM; Kd (HLA-A*02:06; [1]): 11900 nM
6 | SLFPLCLSTT | – | – | – | – | – | Kd (HLA-A*02:03; [2]): 0.3 nM
7 | SLIKFISDNK | ≥ 70000 nM | 14.9 nM | 69.1 nM | 23.7 nM | 2650 nM | –
8 | SLVSKHWELT | – | – | – | – | – | Kd (HLA-A*02:03; [1]): 34.6 nM; Kd (HLA-A*02:02): 409 nM; Kd (HLA-A*02:06; [1]): 2680 nM
9 | SMVSAGSGEV | – | – | – | – | – | Kd (HLA-A*02:03; [2]): 144 nM
10 | SQIFNIISYI | – | – | – | – | – | Kd (HLA-A*02:03; [1]): 181 nM; Kd (HLA-A*02:02): 61.7 nM; Kd (HLA-A*02:06; [1]): 23.5 nM
11 | SQVNPITLTA | – | – | – | – | – | Kd (HLA-A*02:06; source organism: Dengue virus 2 Jamaica/1409/1983): 129 nM
12 | SSIDVDKRTK | 8970 nM | 493 nM | 19.1 nM | 0.841 nM | 752 nM | –
13 | SSYSLFDMSK | – | – | – | – | – | Kd (HLA-A*33:01; [3]): 10100 nM; Kd (HLA-A*03:01; [3]): 18 nM; Kd (HLA-A*68:01; [3]): 42.2 nM; Kd (HLA-A*11:01; [3]): 3.25 nM; Kd (HLA-A*31:01; [3]): 253 nM
14 | SVKNLILNFL | – | – | – | – | – | Kd (HLA-A*02:03; [1]): 163 nM; Kd (HLA-A*02:02): 1040 nM; Kd (HLA-A*02:06; [1]): 551 nM
15 | SWPLQCPLDH | – | – | – | – | – | Kd (HLA-A*33:01; [4]): ≥ 38500 nM; Kd (HLA-A*03:01; [4]): ≥ 70000 nM; Kd (HLA-A*68:01; [4]): ≥ 70100 nM; Kd (HLA-A*11:01; [4]): ≥ 69700 nM; Kd (HLA-A*31:01; [4]): ≥ 22800 nM
16 | TFKIDAVRY | ≥ 77700 nM | ≥ 78000 nM | 1900 nM | 18900 nM | ≥ 34900 nM | –
17 | TIGTIAGGV | – | – | – | – | – | Kd (HLA-A*02:03; [1]): 17.4 nM; Kd (HLA-A*02:02): 298 nM; Kd (HLA-A*02:06; [1]): 1140 nM
18 | TIKYSNDNRY | ≥ 70000 nM | ≥ 20600 nM | 956 nM | 8860 nM | ≥ 29900 nM | –
19 | TITTFIPISA | – | – | – | – | – | Kd (HLA-A*02:03; [1]): 176 nM; Kd (HLA-A*02:02): 4060 nM; Kd (HLA-A*02:06; [1]): 4840 nM

Row | Sequence | Kd (HLA-A*33:01; [1]) | Kd (HLA-A*03:01; [1]) | Kd (HLA-A*68:01; [1]) | Kd (HLA-A*11:01; [1]) | Kd (HLA-A*31:01; [1]) | further results
20 | TLFYCDERDA | – | – | – | – | – | Kd (HLA-A*02:03; [1]): 2150 nM; Kd (HLA-A*02:02): 271 nM; Kd (HLA-A*02:06; [1]): 19500 nM
21 | TLILSNKLLY | 18700 nM | 1290 nM | 4330 nM | 1010 nM | 18000 nM | –
22 | TLMSIISTFH | – | – | – | – | – | Kd (HLA-A*33:01; [5]): 15900 nM; Kd (HLA-A*03:01; [5]): 6370 nM; Kd (HLA-A*68:01; [5]): 2920 nM; Kd (HLA-A*11:01; [5]): ≥ 34600 nM; Kd (HLA-A*31:01; [5]): 8710 nM
23 | TMADLVYALR | – | – | – | – | – | Kd (HLA-A*33:01; [3]): 136 nM; Kd (HLA-A*03:01; [3]): 2250 nM; Kd (HLA-A*68:01; [3]): 9.4 nM; Kd (HLA-A*11:01; [3]): 898 nM; Kd (HLA-A*31:01; [3]): 81.3 nM
24 | TSKTTILSK | ≥ 37700 nM | 4520 nM | 1110 nM | 403 nM | 2020 nM | –
25 | TTEMLSRALK | – | – | – | – | – | Kd (HLA-A*33:01; [3]): 3910 nM; Kd (HLA-A*03:01; [3]): 101 nM; Kd (HLA-A*68:01; [3]): 12.8 nM; Kd (HLA-A*11:01; [3]): 67.2 nM; Kd (HLA-A*31:01; [3]): 120 nM
26 | TTTFITVLT | – | – | – | – | – | Kd (HLA-A*02:03; [1]): 8590 nM; Kd (HLA-A*02:02): 2460 nM; Kd (HLA-A*02:06; [1]): 1090 nM
27 | TVQEFIFSAL | – | – | – | – | – | Kd (HLA-A*02:03; [1]): 90 nM; Kd (HLA-A*02:02): 80.7 nM; Kd (HLA-A*02:06; [1]): 43.9 nM
28 | TVSALVYDNK | – | – | – | – | – | Kd (HLA-A*33:01; [3]): 9750 nM; Kd (HLA-A*03:01; [3]): 488 nM; Kd (HLA-A*68:01; [3]): 5.88 nM; Kd (HLA-A*11:01; [3]): 20.6 nM; Kd (HLA-A*31:01; [3]): 4890 nM
29 | VMNIERQDYR | 65.1 nM | 11400 nM | 153 nM | 4140 nM | 46.7 nM | –
30 | VQMLSDTLK | – | – | – | – | – | Kd (HLA-A*33:01; [3]): ≥ 77700 nM; Kd (HLA-A*03:01; [3]): 74.3 nM; Kd (HLA-A*68:01; [3]): 2480 nM; Kd (HLA-A*11:01; [3]): 18.7 nM; Kd (HLA-A*31:01; [3]): 413 nM
31 | VSAQNISFK | ≥ 33900 nM | 14.6 nM | 70.6 nM | 9.62 nM | 1570 nM | –
32 | VSDFRDYQSY | ≥ 70000 nM | ≥ 32200 nM | ≥ 51200 nM | 4640 nM | ≥ 70000 nM | –
33 | VTDLENRLKK | ≥ 70000 nM | 291 nM | ≥ 31700 nM | 14.5 nM | ≥ 37700 nM | –
34 | YFSFKKCLVY | 9060 nM | 33 nM | 578 nM | 107 nM | 2780 nM | –
35 | YIRRNMINK | ≥ 21300 nM | 10.6 nM | 168 nM | 568 nM | 2370 nM | –
36 | YLKNYKNFDY | ≥ 70000 nM | 4070 nM | 7290 nM | 2490 nM | 1540 nM | –
37 | YLSSRAKLAL | – | – | – | – | – | Kd (HLA-A*02:03; source organism: Dengue virus 4 Philippines/H241/1956): 28.1 nM
38 | YTCEDNTGIK | ≥ 70000 nM | ≥ 29700 nM | 256 nM | 1060 nM | ≥ 70000 nM | –

— the Immune Epitope Database (IEDB)
